Data taken from paper PMC4960544, “Production of full-length soluble Plasmodium falciparum RH5 protein vaccine using a Drosophila melanogaster Schneider 2 stable cell line system” (Scientific Reports, 2016).
Substitutions are numbered along the chain they refer to.

How the values were obtained:
Experiment in all cases: SPR; basigin immobilised on a CM5 chip by amine coupling (850 RU); PfRH5 variant injected at 8-0.0625 uM, 120 s at 30 uL/min, 300 s dissociation; 20 C; 10 mM HEPES pH 7.4, 150 mM NaCl, 3 mM EDTA, 0.005% Tween-20, 2 mg/mL dextran, 1 mg/mL salmon sperm DNA; blank surface subtracted; global 1:1 interaction model
Conditions in all cases: both partners purified
[1] = target: T1, PfRH5 protein variant version 5.0 (native 3D7 PfRH5 sequence) (Plasmodium falciparum (3D7 clone), UniProt Q8IFM5 26-526, N-linked glycan(s): one or both of the N-X-T sequons starting at N38 and N214 are glycosylated)
T1 construct: The construct has an N-terminal BiP insect signal peptide (…); No cleavage site for the His6 tag is described; also called PfRH5 v5.0; v5.0; source: without the Con A step
T1 sequence: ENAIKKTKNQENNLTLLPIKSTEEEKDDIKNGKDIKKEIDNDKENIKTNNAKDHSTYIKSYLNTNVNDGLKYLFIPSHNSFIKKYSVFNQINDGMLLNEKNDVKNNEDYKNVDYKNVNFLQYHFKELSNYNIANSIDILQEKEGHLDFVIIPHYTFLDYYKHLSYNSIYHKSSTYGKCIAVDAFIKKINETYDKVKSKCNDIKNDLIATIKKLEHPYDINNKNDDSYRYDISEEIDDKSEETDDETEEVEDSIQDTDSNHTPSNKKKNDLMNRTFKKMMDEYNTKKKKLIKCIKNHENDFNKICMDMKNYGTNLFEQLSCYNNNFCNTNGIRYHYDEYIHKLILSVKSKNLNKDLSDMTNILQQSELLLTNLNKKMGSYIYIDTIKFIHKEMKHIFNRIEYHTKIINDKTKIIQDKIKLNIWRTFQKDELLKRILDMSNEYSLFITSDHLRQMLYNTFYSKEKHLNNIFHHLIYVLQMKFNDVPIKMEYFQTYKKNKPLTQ

[2] = target: T2, PfRH5 protein variant version 3.0 (3D7 sequence, four putative N-linked glycosylation sites mutated Asn to … (Plasmodium falciparum (3D7 clone), UniProt Q8IFM5 26-526, N38Q | N214Q | Asn to Gln at N284 | Asn to Gln at N297))
T2 construct: the four putative N-linked glycosylation sites (N38, N214, N284, N297) mutated Asn to Gln; The construct has an N-terminal BiP insect signal peptide (…); No cleavage site for the His6 tag is described; also called PfRH5 v3.0; v3.0
T2 sequence: T1 sequence with N13Q, N189Q, N259Q, N272Q

[3] = target: T3, PfRH5 protein variant version 4.0 (3D7 sequence, N38Q and N214Q) (Plasmodium falciparum (3D7 clone), UniProt Q8IFM5 26-526, N38Q | N214Q)
T3 construct: only two of the putative N-linked glycosylation sites mutated (N38Q and N214Q); The construct has an N-terminal BiP insect signal peptide (…); No cleavage site for the His6 tag is described; No evidence of glycosylation was found for this variant; also called PfRH5 v4.0; v4.0; source: without the Con A step
T3 sequence: T1 sequence with N13Q, N189Q

Measured: binding result

B1: recombinant basigin, immunoglobulin domains 1 and 2 of the short isoform (22-205) (domain or fragment)
chain: GAAGTVFTTVEDLGSKILLTCSLNDSATEVTGHRWLKGGVVLKEDALPGQKTEFKVDSDDQWGEYSCVFLPEPMGTANIQLHGPPRVKAVKSSEHINEGETAMLVCKSESVPPVTDWAWYKITDSEDKALMNGSESRFFVSSSQGRSELHIENLNMEADPGQYRCNGTSSKGSDQAIITLRVRSH
notes: additional glycine left at the N-terminus from the TEV cleavage site; basigin (CD147), immunoglobulin domains 1 and 2 of the short isoform, residues 22-205; numbers count on: the short isoform; basigin is spoken of as the red blood cell receptor of the human malaria parasite; also called CD147; PfRH5 receptor; not shown: His6, N-terminal, cleaved
binds: all assays above
